Results reported in US20090035321A1, “Intercellular adhesion molecules and their binding ligands” (Boehringer Ingelheim Pharmaceuticals, Inc., published 2009).

Experiments:
Assay in all cases: flow, COS cells
[1] = molecular target: ICAM-1 N269QSQI/IQAEQ (human) (UniProt P05362)
ICAM-1 N240DS/KNA = ICAM-1 N240DS/KNA (human, UniProt P05362)
ICAM-1 Q1T/KA = ICAM-1 Q1T/KA (human, UniProt P05362)
ICAM-1 Q1/K = ICAM-1 Q1/K (human, UniProt P05362)
ICAM-1 S3VS/AGL = ICAM-1 S3VS/AGL (human, UniProt P05362)
ICAM-1 S3/T = ICAM-1 S3/T (human, UniProt P05362)
ICAM-1 V4/G = ICAM-1 V4/G (human, UniProt P05362)
ICAM-1 K8/E = ICAM-1 K8/E (human, UniProt P05362)
ICAM-1 R13G/EA = ICAM-1 R13G/EA (human, UniProt P05362)
ICAM-1 R13/E = ICAM-1 R13/E (human, UniProt P05362)
ICAM-1 R13/Q = ICAM-1 R13/Q (human, UniProt P05362)
ICAM-1 T20CS/ACT = ICAM-1 T20CS/ACT (human, UniProt P05362)
ICAM-1 S24/A = ICAM-1 S24/A (human, UniProt P05362)
ICAM-1 D26QPK/ALPE = ICAM-1 D26QPK/ALPE (human, UniProt P05362)
ICAM-1 Q27/L = ICAM-1 Q27/L (human, UniProt P05362)
ICAM-1 K39KE/ERQ = ICAM-1 K39KE/ERQ (human, UniProt P05362)
ICAM-1 K40/A = ICAM-1 K40/A (human, UniProt P05362)
ICAM-1 G46NN/ASI = ICAM-1 G46NN/ASI (human, UniProt P05362)
ICAM-1 Y52/FA = ICAM-1 Y52/FA (human, UniProt P05362)
ICAM-1 N56V/HM = ICAM-1 N56V/HM (human, UniProt P05362)
ICAM-1 Q58EDS/AKDI = ICAM-1 Q58EDS/AKDI (human, UniProt P05362)
ICAM-1 Q58/H = ICAM-1 Q58/H (human, UniProt P05362)
ICAM-1 E59/K = ICAM-1 E59/K (human, UniProt P05362)
ICAM-1 E59/Q = ICAM-1 E59/Q (human, UniProt P05362)
ICAM-1 D60/K = ICAM-1 D60/K (human, UniProt P05362)
ICAM-1 D60/N = ICAM-1 D60/N (human, UniProt P05362)
ICAM-1 D60/Q = ICAM-1 D60/Q (human, UniProt P05362)
ICAM-1 Q62PM/API = ICAM-1 Q62PM/API (human, UniProt P05362)
ICAM-1 M64/I = ICAM-1 M64/I (human, UniProt P05362)
ICAM-1 N68/K = ICAM-1 N68/K (human, UniProt P05362)
ICAM-1 D71GQS/NGEL = ICAM-1 D71GQS/NGEL (human, UniProt P05362)
ICAM-1 D71/E = ICAM-1 D71/E (human, UniProt P05362)
ICAM-1 D71/N = ICAM-1 D71/N (human, UniProt P05362)
ICAM-1 Q73/T = ICAM-1 Q73/T (human, UniProt P05362)
ICAM-1 S74/A = ICAM-1 S74/A (human, UniProt P05362)
ICAM-1 T75/A = ICAM-1 T75/A (human, UniProt P05362)
ICAM-1 K77T/ES = ICAM-1 K77T/ES (human, UniProt P05362)
ICAM-1 E87/K = ICAM-1 E87/K (human, UniProt P05362)
ICAM-1 L91/A = ICAM-1 L91/A (human, UniProt P05362)
ICAM-1 N103/K = ICAM-1 N103/K (human, UniProt P05362)
ICAM-1 N118/Q = ICAM-1 N118/Q (human, UniProt P05362)
ICAM-1 R125/E = ICAM-1 R125/E (human, UniProt P05362)
ICAM-1 K128/R = ICAM-1 K128/R (human, UniProt P05362)
ICAM-1 V136GE/GVK = ICAM-1 V136GE/GVK (human, UniProt P05362)
ICAM-1 R149RD/EEG = ICAM-1 R149RD/EEG (human, UniProt P05362)
ICAM-1 H152HGA/EEGS = ICAM-1 H152HGA/EEGS (human, UniProt P05362)
ICAM-1 N175TSA/QTLG = ICAM-1 N175TSA/QTLG (human, UniProt P05362)
ICAM-1 S177/G = ICAM-1 S177/G (human, UniProt P05362)
ICAM-1 A189T/SI = ICAM-1 A189T/SI (human, UniProt P05362)
ICAM-1 D203TQ/TAD = ICAM-1 D203TQ/TAD (human, UniProt P05362)
ICAM-1 D213GL/HGV = ICAM-1 D213GL/HGV (human, UniProt P05362)
ICAM-1 D229QR/HLE = ICAM-1 D229QR/HLE (human, UniProt P05362)

## monoclonal antibody CL203
[1]
  SLFI % WT: 95 % WT
ICAM-1 N240DS/KNA
  SLFI % WT: 142 % WT
ICAM-1 Q1T/KA
  SLFI % WT: 230 % WT
ICAM-1 Q1/K
  SLFI % WT: 168 % WT
ICAM-1 S3VS/AGL
  SLFI % WT: 121 % WT
ICAM-1 S3/T
  SLFI % WT: 224 % WT
ICAM-1 V4/G
  SLFI % WT: 111 % WT
ICAM-1 K8/E
  SLFI % WT: 111 % WT
ICAM-1 R13G/EA
  SLFI % WT: 132 % WT
ICAM-1 R13/E
  SLFI % WT: 202 % WT
ICAM-1 R13/Q
  SLFI % WT: 161 % WT
ICAM-1 T20CS/ACT
  SLFI % WT: 148 % WT
ICAM-1 S24/A
  SLFI % WT: 158 % WT
ICAM-1 D26QPK/ALPE
  SLFI % WT: 126 % WT
ICAM-1 Q27/L
  SLFI % WT: 33 % WT
ICAM-1 K39KE/ERQ
  SLFI % WT: 84 % WT
ICAM-1 K40/A
  SLFI % WT: 146 % WT
ICAM-1 G46NN/ASI
  SLFI % WT: 151 % WT
ICAM-1 Y52/FA
  SLFI % WT: 100 % WT
ICAM-1 N56V/HM
  SLFI % WT: 121 % WT
ICAM-1 Q58EDS/AKDI
  SLFI % WT: 98 % WT
ICAM-1 Q58/H
  SLFI % WT: 135 % WT
ICAM-1 E59/K
  SLFI % WT: 130 % WT
ICAM-1 E59/Q
  SLFI % WT: 195 % WT
ICAM-1 D60/K
  SLFI % WT: 89 % WT
ICAM-1 D60/N
  SLFI % WT: 127 % WT
ICAM-1 D60/Q
  SLFI % WT: 80 % WT
ICAM-1 Q62PM/API
  SLFI % WT: 200 % WT
ICAM-1 M64/I
  SLFI % WT: 183 % WT
ICAM-1 N68/K
  SLFI % WT: 153 % WT
ICAM-1 D71GQS/NGEL
  SLFI % WT: 161 % WT
ICAM-1 D71/E
  SLFI % WT: 124 % WT
ICAM-1 D71/N
  SLFI % WT: 109 % WT
ICAM-1 Q73/T
  SLFI % WT: 218 % WT
ICAM-1 S74/A
  SLFI % WT: 129 % WT
ICAM-1 T75/A
  SLFI % WT: 153 % WT
ICAM-1 K77T/ES
  SLFI % WT: 151 % WT
ICAM-1 E87/K
  SLFI % WT: 94 % WT
ICAM-1 L91/A
  SLFI % WT: 15 % WT
ICAM-1 N103/K
  SLFI % WT: 91 % WT
ICAM-1 N118/Q
  SLFI % WT: 139 % WT
ICAM-1 R125/E
  SLFI % WT: 145 % WT
ICAM-1 K128/R
  SLFI % WT: 190 % WT
ICAM-1 V136GE/GVK
  SLFI % WT: 171 % WT
ICAM-1 R149RD/EEG
  SLFI % WT: 159 % WT
ICAM-1 H152HGA/EEGS
  SLFI % WT: 94 % WT
ICAM-1 N175TSA/QTLG
  SLFI % WT: 75 % WT
ICAM-1 S177/G
  SLFI % WT: 87 % WT
ICAM-1 A189T/SI
  SLFI % WT: 138 % WT
ICAM-1 D203TQ/TAD
  SLFI % WT: 125 % WT
ICAM-1 D213GL/HGV
  SLFI % WT: 128 % WT
ICAM-1 D229QR/HLE
  SLFI % WT: 210 % WT
